Source: IntAct's records for PubMed 16963558

B1: Non-structural protein 1 (Influenza A virus (strain A/Puerto Rico/8/1934 H1N1)), P03496 (parent)
chain: MDPNTVSSFQVDCFLWHVRKRVADQELGDAPFLDRLRRDQKSLRGRGSTLGLDIETATRAGKQIVERILKEESDEALKMTMASVPASRYLTDMTLEEMSRDWSMLIPKQKVAGPLCIRMDQAIMDKNIILKANFSVIFDRLETLILLRAFTEEGAIVGEISPLPSLPGHTAEDVKNAVGVLIGGLEWNDNTVRVSETLQRFAWRSSNENGRPPLTPKQKREMAGTIRSEV

Variants of: B1
Settings: with p85b_human PIK3R2, O00459
p85b_human PIK3R2, O00459, sequence (O00459 whole entry): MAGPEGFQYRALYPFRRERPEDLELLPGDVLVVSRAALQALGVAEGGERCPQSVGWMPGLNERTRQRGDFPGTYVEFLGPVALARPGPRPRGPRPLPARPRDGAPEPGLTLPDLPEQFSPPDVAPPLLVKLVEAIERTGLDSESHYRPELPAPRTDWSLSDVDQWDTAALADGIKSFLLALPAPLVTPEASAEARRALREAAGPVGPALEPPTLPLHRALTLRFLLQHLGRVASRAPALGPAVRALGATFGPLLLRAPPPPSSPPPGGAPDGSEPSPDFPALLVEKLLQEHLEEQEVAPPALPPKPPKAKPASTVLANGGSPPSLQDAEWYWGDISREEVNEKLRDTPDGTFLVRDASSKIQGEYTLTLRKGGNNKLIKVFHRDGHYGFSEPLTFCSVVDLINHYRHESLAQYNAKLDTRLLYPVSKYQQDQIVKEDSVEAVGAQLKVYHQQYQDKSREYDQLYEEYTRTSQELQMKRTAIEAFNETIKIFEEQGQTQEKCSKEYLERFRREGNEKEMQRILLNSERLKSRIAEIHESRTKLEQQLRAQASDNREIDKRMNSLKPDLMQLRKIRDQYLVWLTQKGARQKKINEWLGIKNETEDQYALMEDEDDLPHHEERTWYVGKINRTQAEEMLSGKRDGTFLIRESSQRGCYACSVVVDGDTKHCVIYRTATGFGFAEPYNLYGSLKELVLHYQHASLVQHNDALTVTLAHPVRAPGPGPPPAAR

Variant	effect of a mutation on the interaction
Y89F	disrupting interaction strength
M93A	disrupting interaction strength

Variants of: B1
Settings: with p85b_bovin PIK3R2, P23726
p85b_bovin PIK3R2, P23726, sequence (P23726 whole entry): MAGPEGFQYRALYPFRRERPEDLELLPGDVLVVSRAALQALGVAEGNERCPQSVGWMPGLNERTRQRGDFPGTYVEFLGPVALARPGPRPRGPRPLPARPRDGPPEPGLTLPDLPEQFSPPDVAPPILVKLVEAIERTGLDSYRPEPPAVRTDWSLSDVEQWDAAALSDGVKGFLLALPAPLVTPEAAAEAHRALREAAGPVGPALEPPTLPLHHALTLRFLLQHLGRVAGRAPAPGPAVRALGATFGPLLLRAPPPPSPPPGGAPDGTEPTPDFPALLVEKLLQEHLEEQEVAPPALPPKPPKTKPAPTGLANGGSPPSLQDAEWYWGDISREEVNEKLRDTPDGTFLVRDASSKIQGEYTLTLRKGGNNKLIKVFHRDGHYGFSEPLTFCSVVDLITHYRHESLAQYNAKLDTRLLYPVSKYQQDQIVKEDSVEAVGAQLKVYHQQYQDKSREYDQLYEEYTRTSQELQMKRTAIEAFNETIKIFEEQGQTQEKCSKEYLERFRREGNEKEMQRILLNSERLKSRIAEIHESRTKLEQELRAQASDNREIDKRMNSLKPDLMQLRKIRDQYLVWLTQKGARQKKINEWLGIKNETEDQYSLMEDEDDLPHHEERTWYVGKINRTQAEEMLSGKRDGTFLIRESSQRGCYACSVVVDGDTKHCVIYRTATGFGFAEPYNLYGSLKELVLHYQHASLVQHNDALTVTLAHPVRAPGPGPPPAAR

Variant	effect of a mutation on the interaction
Y89F	disrupting interaction strength
